Reference: article PMC4383044, “Molecular insights into RNA and DNA helicase evolution from the determinants of specificity for a DEAD-box RNA helicase” (eLife, 2014)

Tests used:
[1] = target: T1, Mss116 helicase core (D1D2, residues 88–597) (Saccharomyces cerevisiae, UniProt P15424); assay: kinetic gel-based dsRNA unwinding; type: biochemical; settings: 5 mM ATP-Mg, 2 uM D1D2, 125 nM labelled 12-bp dsRNA, pH 7.5, 22 °C
T1 construct: helicase core D1D2 (residues 88-597; D1, D2 and CTE), lacking unstructured N- (37-87) and C-terminal (598-664) extensions; expressed as N-terminal MalE (MBP) fusion in E. coli Rosetta 2; D1D2 used for crystals and kinetic unwinding
T1 sequence (P15424 88-597): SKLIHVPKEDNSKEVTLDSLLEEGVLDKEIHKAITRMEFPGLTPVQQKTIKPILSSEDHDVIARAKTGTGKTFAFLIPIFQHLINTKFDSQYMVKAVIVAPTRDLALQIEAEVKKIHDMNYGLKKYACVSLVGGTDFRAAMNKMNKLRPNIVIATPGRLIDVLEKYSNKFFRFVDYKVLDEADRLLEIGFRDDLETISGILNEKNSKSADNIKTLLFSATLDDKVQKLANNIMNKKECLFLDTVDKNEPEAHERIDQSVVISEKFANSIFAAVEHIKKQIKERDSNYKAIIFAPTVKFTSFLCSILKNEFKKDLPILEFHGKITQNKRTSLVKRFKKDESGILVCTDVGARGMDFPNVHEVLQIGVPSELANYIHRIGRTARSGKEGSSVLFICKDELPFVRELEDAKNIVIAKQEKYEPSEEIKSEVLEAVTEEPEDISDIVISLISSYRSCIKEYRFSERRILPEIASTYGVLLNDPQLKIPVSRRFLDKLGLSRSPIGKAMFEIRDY

Mss116 D2, MBP-tagged [2] = target: T2, Mss116 D2, MBP-tagged (Saccharomyces cerevisiae? (paper: yeast), UniProt P15424 342-597); assay: competition; unlabeled dsRNA displacing 250 nM 5' FAM-B-DNA from 500 nM MBP-D2; 20 mM Tris-HCl pH 7.5, 100 mM KCl, 10% glycerol, 1 mM DTT, 5 mM MgCl2, 0.1 mg/ml BSA, 22 C, >=1 h; EMSA gels 6% at 4 C in 0.5x TBE; SEC with 200 mM KCl, no BSA; settings: protein: recombinant; tags: N-terminal MBP (MalE); self-complementary, 2 strand copies, 12 bp
T2 sequence: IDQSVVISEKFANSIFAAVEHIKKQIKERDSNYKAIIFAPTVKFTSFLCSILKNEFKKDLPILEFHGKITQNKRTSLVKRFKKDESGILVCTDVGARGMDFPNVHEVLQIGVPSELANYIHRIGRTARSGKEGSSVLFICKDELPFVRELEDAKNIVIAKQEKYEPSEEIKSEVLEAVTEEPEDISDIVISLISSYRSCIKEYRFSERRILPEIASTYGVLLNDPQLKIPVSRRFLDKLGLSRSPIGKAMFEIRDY

Mss116 D2, MBP-tagged [3] = target: T2, Mss116 D2, MBP-tagged; assay: EMSA; no nucleotide; Hill 1.5; 20 mM Tris-HCl pH 7.5, 100 mM KCl, 10% glycerol, 1 mM DTT, 5 mM MgCl2, 0.1 mg/ml BSA, 22 C, >=1 h; EMSA gels 6% at 4 C in 0.5x TBE; SEC with 200 mM KCl, no BSA; settings: protein: recombinant; tags: N-terminal MBP (MalE); label: 5' FAM; self-complementary, 2 strand copies, 12 bp
Mss116 D2, MBP-tagged [4] = target: T2, Mss116 D2, MBP-tagged; assay: EMSA; no nucleotide; Hill 1.6; 20 mM Tris-HCl pH 7.5, 100 mM KCl, 10% glycerol, 1 mM DTT, 5 mM MgCl2, 0.1 mg/ml BSA, 22 C, >=1 h; EMSA gels 6% at 4 C in 0.5x TBE; SEC with 200 mM KCl, no BSA; settings: protein: recombinant; tags: N-terminal MBP (MalE); label: 5' FAM; self-complementary, 2 strand copies, 12 bp
[5] = target: T3, Mss116 helicase core D1D2 (Saccharomyces cerevisiae? (paper: yeast), UniProt P15424 88-597); assay: SEC; 5 mM ADP-BeFx; A260/A280 0.6, open; no complex maintained on column; 20 mM Tris-HCl pH 7.5, 100 mM KCl, 10% glycerol, 1 mM DTT, 5 mM MgCl2, 0.1 mg/ml BSA, 22 C, >=1 h; EMSA gels 6% at 4 C in 0.5x TBE; SEC with 200 mM KCl, no BSA; settings: protein: recombinant; tags: expressed as MalE fusion; self-complementary, 2 strand copies, 12 bp
T3 sequence: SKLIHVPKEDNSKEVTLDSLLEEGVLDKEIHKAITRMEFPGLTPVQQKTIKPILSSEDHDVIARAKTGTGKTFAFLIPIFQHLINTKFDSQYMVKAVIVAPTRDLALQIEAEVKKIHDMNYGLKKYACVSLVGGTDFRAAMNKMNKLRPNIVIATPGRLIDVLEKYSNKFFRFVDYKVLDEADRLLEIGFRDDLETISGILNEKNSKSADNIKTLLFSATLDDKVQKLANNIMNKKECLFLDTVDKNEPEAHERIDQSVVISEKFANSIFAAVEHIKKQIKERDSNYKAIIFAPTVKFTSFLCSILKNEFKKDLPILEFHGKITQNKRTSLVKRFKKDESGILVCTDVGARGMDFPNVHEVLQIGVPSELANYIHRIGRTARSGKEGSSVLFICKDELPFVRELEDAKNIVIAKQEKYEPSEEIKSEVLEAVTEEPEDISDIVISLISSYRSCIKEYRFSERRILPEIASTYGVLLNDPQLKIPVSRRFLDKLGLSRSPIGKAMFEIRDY

Mss116 D2, MBP-tagged [6] = target: T2, Mss116 D2, MBP-tagged; assay: competition; unlabeled B-DNA displacing 250 nM 5' FAM-dsRNA from 500 nM MBP-D2; 20 mM Tris-HCl pH 7.5, 100 mM KCl, 10% glycerol, 1 mM DTT, 5 mM MgCl2, 0.1 mg/ml BSA, 22 C, >=1 h; EMSA gels 6% at 4 C in 0.5x TBE; SEC with 200 mM KCl, no BSA; settings: protein: recombinant; tags: N-terminal MBP (MalE); self-complementary, 2 strand copies, 12 bp
Mss116 D2, MBP-tagged [7] = target: T2, Mss116 D2, MBP-tagged; assay: EMSA; no nucleotide; Hill 2.2; 20 mM Tris-HCl pH 7.5, 100 mM KCl, 10% glycerol, 1 mM DTT, 5 mM MgCl2, 0.1 mg/ml BSA, 22 C, >=1 h; EMSA gels 6% at 4 C in 0.5x TBE; SEC with 200 mM KCl, no BSA; settings: protein: recombinant; tags: N-terminal MBP (MalE); label: 5' FAM; self-complementary, 2 strand copies, 12 bp
[8] = target: T4, Mss116 helicase core D1D2, MBP-tagged (Saccharomyces cerevisiae? (paper: yeast), UniProt P15424 88-597); assay: gel-based fluorescence closed-state/unwinding assay; ADP-BeFx titrated (value is nucleotide concentration), 2 uM protein; 20 mM Tris-HCl pH 7.5, 100 mM KCl, 10% glycerol, 1 mM DTT, 5 mM MgCl2, 0.1 mg/ml BSA, 22 C, >=1 h; EMSA gels 6% at 4 C in 0.5x TBE; SEC with 200 mM KCl, no BSA; settings: protein: recombinant; tags: N-terminal MBP (MalE); label: 5' FAM, 3' Iowa Black FQ; self-complementary, 2 strand copies, 12 bp
T4 sequence: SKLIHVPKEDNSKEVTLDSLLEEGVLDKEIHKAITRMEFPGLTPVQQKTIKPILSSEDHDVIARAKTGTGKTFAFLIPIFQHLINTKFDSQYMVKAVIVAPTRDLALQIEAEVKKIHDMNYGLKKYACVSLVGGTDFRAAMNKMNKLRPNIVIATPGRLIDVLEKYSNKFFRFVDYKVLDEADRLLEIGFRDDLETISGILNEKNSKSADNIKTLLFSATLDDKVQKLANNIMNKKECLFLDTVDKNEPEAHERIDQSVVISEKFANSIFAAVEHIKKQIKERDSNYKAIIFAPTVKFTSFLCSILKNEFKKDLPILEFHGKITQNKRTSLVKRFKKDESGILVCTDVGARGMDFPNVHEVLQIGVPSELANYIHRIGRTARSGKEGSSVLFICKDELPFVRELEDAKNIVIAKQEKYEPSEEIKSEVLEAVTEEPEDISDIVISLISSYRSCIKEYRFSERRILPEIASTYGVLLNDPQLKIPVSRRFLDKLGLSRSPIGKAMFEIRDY

`Nc1ncnc2c1ncn2[C@@H]1O[C@H](COP(=O)(O)OP(=O)(O)OP(=O)(O)O)[C@@H](O)[C@H]1O` [ATP] was tested, and the “kinetic gel-based dsRNA unwinding” value [1] was “only ATP, and not other NTPs, catalyzes the unwinding of the dsRNA”.

B1: 12-bp dsRNA, unlabeled (dsRNA)
RNA 1: CCCCCGCGGGGG
RNA 2: CCCCCGCGGGGG
B1 showed a Ki (Mss116 D2, MBP-tagged [2]) of 860 ± 40 nM.

B2: 12-bp A-DNA duplex, 5' FAM (dsDNA)
DNA 1: CCCCCGCGGGGG
DNA 2: CCCCCGCGGGGG
In the case of B2, the “apparent K (half saturation)” value (Mss116 D2, MBP-tagged [3]) is reported as 410 nM.

B3: 12-bp B-DNA duplex, 5' FAM (dsDNA)
DNA 1: GCGCGCGCGCGC
DNA 2: GCGCGCGCGCGC
With B3 the “apparent K (half saturation)” value (Mss116 D2, MBP-tagged [4]) was 510 nM.

B4: 12-bp B-DNA duplex, unlabeled (dsDNA)
DNA 1: GCGCGCGCGCGC
DNA 2: GCGCGCGCGCGC
In the case of B4, the binding result [5] is reported as “no binding” and the Ki (Mss116 D2, MBP-tagged [6]) is reported as 1700 ± 200 nM.

B5: 12-bp dsRNA, 5' FAM (dsRNA)
RNA 1: CCCCCGCGGGGG
RNA 2: CCCCCGCGGGGG
In the case of B5, the “apparent K (half saturation)” value (Mss116 D2, MBP-tagged [7]) is reported as 400 nM.

B6: 12-bp dsRNA, FAM/IBFQ (dsRNA)
RNA 1: CCCCCGCGGGGG
RNA 2: CCCCCGCGGGGG
In the case of B6, the “apparent K (half saturation)” value [8] is reported as 140 µM.
